Test results as given in the supplement of paper PMC12855868.

B1: library; numbered along this chain (parent)
chain: MAAAGGARLLRAASAVLGGPAGRWLHHAGSRAGSSGLLRNRGPGGSAEASRSLSVSARARSSSEDKITVHFINRDGETLTTKGKVGDSLLDVVVENNLDIDGFGACEGTLACSTCHLIFEDHIYEKLDAITDEENDMLDLAYGLTDRSRLGCQICLTKSMDNMTVRVPETVADARQSIDVGKTS

Variants of: B1
Assay: scaled log2 fold change in cell abundance, elesclomol vs control (0 = silent mean, 1 = nonsense mean) (scaled log2 ratio); higher = higher viability under elesclomol (loss of FDX1 cuproptosis function)
Conditions: glucose 10 mM
[1] = with ABC1 FDX1 KO, elesclomol 5 nM, 14 days
[2] = with HEK293T FDX1 KO, elesclomol 40 nM, 11 days
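Further: variant abundance is its share of total variant reads in each endpoint sample, from next-generation sequencing of the integrated ORF PCR-amplified out of genomic DNA.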

Variant	scaled log2 fold change [1]	scaled log2 fold change [2]
MAAAGGARLLRAASAVLGGPAGRWLHHAGSRAGSSGLLRNRGPGGSAEASRSLSVSARARSSSEDKITVHFINRDGETLTTKGKVGDSLLDVVVENNLYIDGFGACEGTLACSTCHLIFEDHIYEKLDAITDEENDMLDLAYGLTDRSRLGCQICLTKSMDNMTVRVPETVADARQSIDVGKTS [D99Y]	-0.0205	0.198
MAAAGGARLLRAASAVLGGPAGRWLHHAGSRAGSSGLLRNRGPGGSAEASRSLSVSARARSSSEDKITVHFINRDGETLTTKGKVGDSLLDVVVENNLWIDGFGACEGTLACSTCHLIFEDHIYEKLDAITDEENDMLDLAYGLTDRSRLGCQICLTKSMDNMTVRVPETVADARQSIDVGKTS [D99W]	-0.0217	-0.818
MAAAGGARLLRAASAVLGGPAGRWLHHAGSRAGSSGLLRNRGPGGSAEASRSLSVSARARSSSEDKITVHFINRDGETLTTKGKVGDSLLDVVVENNLDLDGFGACEGTLACSTCHLIFEDHIYEKLDAITDEENDMLDLAYGLTDRSRLGCQICLTKSMDNMTVRVPETVADARQSIDVGKTS [I100L]	-0.145	0.198
MAAAGGARLLRAASAVLGGPAGRWLHHAGSRAGSSGLLRNRGPGGSAEASRSLSVSARARSSSEDKITVHFINRDGETLTTKGKVGDSLLDVVVENNLDGDGFGACEGTLACSTCHLIFEDHIYEKLDAITDEENDMLDLAYGLTDRSRLGCQICLTKSMDNMTVRVPETVADARQSIDVGKTS [I100G]	-0.02	0.208
MAAAGGARLLRAASAVLGGPAGRWLHHAGSRAGSSGLLRNRGPGGSAEASRSLSVSARARSSSEDKITVHFINRDGETLTTKGKVGDSLLDVVVENNLDHDGFGACEGTLACSTCHLIFEDHIYEKLDAITDEENDMLDLAYGLTDRSRLGCQICLTKSMDNMTVRVPETVADARQSIDVGKTS [I100H]	0.0888	-0.835
MAAAGGARLLRAASAVLGGPAGRWLHHAGSRAGSSGLLRNRGPGGSAEASRSLSVSARARSSSEDKITVHFINRDGETLTTKGKVGDSLLDVVVENNLDPDGFGACEGTLACSTCHLIFEDHIYEKLDAITDEENDMLDLAYGLTDRSRLGCQICLTKSMDNMTVRVPETVADARQSIDVGKTS [I100P]	0.146	-0.208
MAAAGGARLLRAASAVLGGPAGRWLHHAGSRAGSSGLLRNRGPGGSAEASRSLSVSARARSSSEDKITVHFINRDGETLTTKGKVGDSLLDVVVENNLDFDGFGACEGTLACSTCHLIFEDHIYEKLDAITDEENDMLDLAYGLTDRSRLGCQICLTKSMDNMTVRVPETVADARQSIDVGKTS [I100F]	-0.0589	-0.586
MAAAGGARLLRAASAVLGGPAGRWLHHAGSRAGSSGLLRNRGPGGSAEASRSLSVSARARSSSEDKITVHFINRDGETLTTKGKVGDSLLDVVVENNLDKDGFGACEGTLACSTCHLIFEDHIYEKLDAITDEENDMLDLAYGLTDRSRLGCQICLTKSMDNMTVRVPETVADARQSIDVGKTS [I100K]	0.223	0.128
MAAAGGARLLRAASAVLGGPAGRWLHHAGSRAGSSGLLRNRGPGGSAEASRSLSVSARARSSSEDKITVHFINRDGETLTTKGKVGDSLLDVVVENNLDADGFGACEGTLACSTCHLIFEDHIYEKLDAITDEENDMLDLAYGLTDRSRLGCQICLTKSMDNMTVRVPETVADARQSIDVGKTS [I100A]	0.162	-0.8
MAAAGGARLLRAASAVLGGPAGRWLHHAGSRAGSSGLLRNRGPGGSAEASRSLSVSARARSSSEDKITVHFINRDGETLTTKGKVGDSLLDVVVENNLDMDGFGACEGTLACSTCHLIFEDHIYEKLDAITDEENDMLDLAYGLTDRSRLGCQICLTKSMDNMTVRVPETVADARQSIDVGKTS [I100M]	-0.119	-0.526
MAAAGGARLLRAASAVLGGPAGRWLHHAGSRAGSSGLLRNRGPGGSAEASRSLSVSARARSSSEDKITVHFINRDGETLTTKGKVGDSLLDVVVENNLDQDGFGACEGTLACSTCHLIFEDHIYEKLDAITDEENDMLDLAYGLTDRSRLGCQICLTKSMDNMTVRVPETVADARQSIDVGKTS [I100Q]	0.155	0.874
MAAAGGARLLRAASAVLGGPAGRWLHHAGSRAGSSGLLRNRGPGGSAEASRSLSVSARARSSSEDKITVHFINRDGETLTTKGKVGDSLLDVVVENNLDRDGFGACEGTLACSTCHLIFEDHIYEKLDAITDEENDMLDLAYGLTDRSRLGCQICLTKSMDNMTVRVPETVADARQSIDVGKTS [I100R]	0.287	0.0979
MAAAGGARLLRAASAVLGGPAGRWLHHAGSRAGSSGLLRNRGPGGSAEASRSLSVSARARSSSEDKITVHFINRDGETLTTKGKVGDSLLDVVVENNLDDDGFGACEGTLACSTCHLIFEDHIYEKLDAITDEENDMLDLAYGLTDRSRLGCQICLTKSMDNMTVRVPETVADARQSIDVGKTS [I100D]	0.409	-0.663
MAAAGGARLLRAASAVLGGPAGRWLHHAGSRAGSSGLLRNRGPGGSAEASRSLSVSARARSSSEDKITVHFINRDGETLTTKGKVGDSLLDVVVENNLDCDGFGACEGTLACSTCHLIFEDHIYEKLDAITDEENDMLDLAYGLTDRSRLGCQICLTKSMDNMTVRVPETVADARQSIDVGKTS [I100C]	-0.292	0.943
MAAAGGARLLRAASAVLGGPAGRWLHHAGSRAGSSGLLRNRGPGGSAEASRSLSVSARARSSSEDKITVHFINRDGETLTTKGKVGDSLLDVVVENNLDNDGFGACEGTLACSTCHLIFEDHIYEKLDAITDEENDMLDLAYGLTDRSRLGCQICLTKSMDNMTVRVPETVADARQSIDVGKTS [I100N]	0.181	0.295
MAAAGGARLLRAASAVLGGPAGRWLHHAGSRAGSSGLLRNRGPGGSAEASRSLSVSARARSSSEDKITVHFINRDGETLTTKGKVGDSLLDVVVENNLDEDGFGACEGTLACSTCHLIFEDHIYEKLDAITDEENDMLDLAYGLTDRSRLGCQICLTKSMDNMTVRVPETVADARQSIDVGKTS [I100E]	0.167	0.099
